Data from patent US20220135640A1, “CORTISTATIN OR AN ANALOGUE THEREOF AS A PHARMACEUTICALLY ACTIVE AGENT IN LATENT FORM” (CONSEJO SUPERIOR DE INVESTIGACIONES CIENTIFICAS (CSIC), priority 2019, published 2022).
Bridge positions count the residues as written; N and C are the ends. Ends that are not written are not given here.

Key:
[1] = test system: LAP-GS-MMP-GS-CST-29r fusion protein (SP-LAP-L1-MMP-L2-CST29r)
[2] = Stability of cortistatin-29, free versus in LAP-CST, at room temperature; type: physicochemical
Protocol: On the other hand, whereas the amount of recombinant cortistatin-29 decreased in a 82% after 15 minutes at room temperature, the amount of cortistatin-29 in LAP-CST remains stable for at least 7 days.

sstrt2 receptor = sstrt2 receptor (Homo sapiens, UniProt P30874); settings: cited from earlier work
sstrt2 receptor, sequence (P30874 whole entry): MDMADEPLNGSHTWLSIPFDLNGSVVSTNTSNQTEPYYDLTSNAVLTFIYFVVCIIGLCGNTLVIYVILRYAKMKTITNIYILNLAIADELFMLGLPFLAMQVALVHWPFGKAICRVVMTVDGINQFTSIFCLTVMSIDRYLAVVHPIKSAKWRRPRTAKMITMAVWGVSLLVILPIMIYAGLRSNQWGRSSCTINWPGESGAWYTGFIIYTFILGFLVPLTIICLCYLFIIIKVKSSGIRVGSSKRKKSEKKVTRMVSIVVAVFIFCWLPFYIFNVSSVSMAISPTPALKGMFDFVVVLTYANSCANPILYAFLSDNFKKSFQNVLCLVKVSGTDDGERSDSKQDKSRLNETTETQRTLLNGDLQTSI

sstr1 = sstr1 (Homo sapiens, UniProt P30872); settings: cited from earlier work
sstr1, sequence (P30872 whole entry): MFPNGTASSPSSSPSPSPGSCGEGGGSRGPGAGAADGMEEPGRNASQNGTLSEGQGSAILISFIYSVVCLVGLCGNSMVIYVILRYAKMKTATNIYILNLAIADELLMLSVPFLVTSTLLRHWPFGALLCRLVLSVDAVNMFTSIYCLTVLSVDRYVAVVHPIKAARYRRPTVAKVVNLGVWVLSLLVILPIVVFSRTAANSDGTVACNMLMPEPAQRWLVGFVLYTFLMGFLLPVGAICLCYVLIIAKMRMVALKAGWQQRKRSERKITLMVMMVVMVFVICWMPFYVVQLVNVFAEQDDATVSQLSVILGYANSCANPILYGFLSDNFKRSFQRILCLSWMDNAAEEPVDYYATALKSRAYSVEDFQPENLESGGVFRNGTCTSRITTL

sstr4 = sstr4 (Homo sapiens, UniProt P31391); settings: cited from earlier work
sstr4, sequence (P31391 whole entry): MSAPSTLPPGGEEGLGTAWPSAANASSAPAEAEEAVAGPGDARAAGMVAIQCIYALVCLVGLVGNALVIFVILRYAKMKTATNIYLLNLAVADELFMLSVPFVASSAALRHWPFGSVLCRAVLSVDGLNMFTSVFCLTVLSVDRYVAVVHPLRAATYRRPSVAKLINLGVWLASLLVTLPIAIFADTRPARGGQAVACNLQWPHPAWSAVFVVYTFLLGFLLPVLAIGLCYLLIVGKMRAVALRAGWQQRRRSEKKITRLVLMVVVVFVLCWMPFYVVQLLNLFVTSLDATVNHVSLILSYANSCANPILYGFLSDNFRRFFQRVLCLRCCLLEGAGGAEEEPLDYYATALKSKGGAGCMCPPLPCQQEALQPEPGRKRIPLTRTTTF

[3] = cited from earlier work
[4] = test system: somatostatin receptors, sstr1-sstr5; settings: cited from earlier work
recombinant MMP1 = target: T1, recombinant MMP1 (Homo sapiens, UniProt P03956); experiment: Treatment of LAP-CST supernatants with recombinant MMP1, Cortistatin-29 recovered; type: biochemical; settings: 48 h supernatants treated with recombinant MMP1; diminished from 80 ng; 12 hours later
T1 sequence (P03956 100-469): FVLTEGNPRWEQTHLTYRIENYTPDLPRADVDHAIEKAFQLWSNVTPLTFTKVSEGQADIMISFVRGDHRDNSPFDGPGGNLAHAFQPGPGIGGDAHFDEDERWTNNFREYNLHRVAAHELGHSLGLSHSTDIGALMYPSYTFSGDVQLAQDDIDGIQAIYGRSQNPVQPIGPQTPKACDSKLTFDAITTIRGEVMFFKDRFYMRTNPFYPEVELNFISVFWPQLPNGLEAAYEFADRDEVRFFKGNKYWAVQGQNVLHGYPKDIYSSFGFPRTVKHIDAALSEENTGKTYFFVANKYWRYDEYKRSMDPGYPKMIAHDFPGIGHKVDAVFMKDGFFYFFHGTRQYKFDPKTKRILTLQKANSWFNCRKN
Source text: The amount of LAP-MMP-CST-29r peptide in culture supernatants was indirectly determined by measuring the concentration of rat Cortistatin-29 by using a specific ELISA (Phoenix Pharmaceuticals).

[5] = test system: dermal fibrosis induced by bleomycin; experiment: Bleomycin-induced dermal sclerodermia, local treatment; type: in vivo, C57Bl/6 mice
Protocol: FIG. 2 illustrates the experiments performed wherein sclerodermia was induced by intradermal injection of bleomycin (3 times per week, during four weeks) in an area of […] in the dorsal skin of C57Bl/6 mice. Mice were locally treated around the lesion area with saline (group bleomycin), with cortistatin (group belomycin+CST, 3 time per week, 10 ng each time), with empty LAP vector (Bleomycin+LAP, once a week, 20 pg) or with LAP-CST (Bleomycin+LAP-CST, once a week, 20 pg). Naïve animals without bleomycin were used as basal control reference. After four weeks, lesioned skin area was dissected and processed for histological analysis using Mason Trichromic staining. Skin thickness (from epidermis to hypodermis) was quantified using Image J program. Fibrotic deposits in skin are stained in blue in sections. […] Skin thickness (from epidermis to hypodermis) was quantified using Image J program. […]

[6] = test system: bleomycin-induced lung fibrosis; experiment: Bleomycin-induced lung fibrosis, nasal inhalation (Example 3); type: in vivo, C57Bl/6 mice; settings: once a week, 20 pg
Protocol: (§1) FIG. 3 illustrates the experiments performed wherein lung fibrosis was induced by intratracheal injection of bleomycin (50 μg/kg body weight, dissolved in 50 μl of saline) in C57Bl/6 mice. Mice were treated by nasal inhalation of saline (group bleomycin+saline), cortistatin (group belomycin+CST, 3 times per week, 10 ng each time), or LAP-CST (Bleomycin+LAP-CST, once a week, 20 pg). After 18 days, lungs were dissected and processed for histological analysis using Mason Trichromic staining and Sirius Red staining. Lung fibrosis and tissue damage were quantified using Image J program and scored using an established clinical index from 0 to 4 in a blinded fashion. Mortality caused by fibrosis is shown in this figure.
as §1, with “Lung” for “FIG. 3 illustrates the experiments performed wherein lung”, “fashion.” for “fashion. Mortality caused by fibrosis is shown in this figure.”

[7] = test system: liver fibrosis induced by CCl4; experiment: CCl4-induced liver fibrosis; type: in vivo, C57Bl/6 mice; settings: systemic, once a week, 100 pg/mouse, 6 weeks
Protocol: FIG. 4 is a quantification of liver fibrosis and tissue damage using Image J program and scored using an established clinical ISHAK index from 0 to 4 in a blinded fashion.
Liver fibrosis was induced by intraperitoneal injection of CCl4 (3:9 in olive oil, 40 μl/mouse, every three days) in C57Bl/6 mice. Mice were treated three times a week with cortistatin (500 ng/mouse) or once a week with LAP-CST (100 pg/mouse). After 6 weeks, liver was dissected and processed for histological analysis using Mason Trichromic staining and Sirius Red staining. Liver fibrosis and tissue damage were quantified using Image J program and scored using an established clinical ISHAK index from 0 to 4 in a blinded fashion (FIG. 4).

[8] = test system: bleomycin-induced lung fibrosis; experiment: Bleomycin-induced lung fibrosis, comparison of LAP constructs (Example 5); type: in vivo, C57Bl/6 mice; settings: nasal inhalation, once a week, 20 pg, 18 days
Protocol: FIG. 5. Lung fibrosis and tissue damage were quantified using Image J program and scored using an established clinical index from 0 to 4 in a blinded fashion. Mortality caused by fibrosis is shown in this figure.
Lung fibrosis was induced by intratracheal injection of bleomycin (50 μg/kg body weight, dissolved in 50 μl of saline) in C57Bl/6 mice. Mice were treated once a week by nasal inhalation of 20 pg of empty LAP (A), LAP containing only cortistatin (B), LAP containing cortistatin and linkers LAP-L1L2-CST but not MMP site (C), or LAP containing cortistatin, linkers and MMP site (D). After 18 days, lungs were dissected and processed for histological analysis using Mason Trichromic staining and Sirius Red staining. Lung fibrosis and tissue damage were quantified using Image J program and scored using an established clinical index from 0 to 4 in a blinded fashion.

## recombinant MMP1
[1]
  amount of Cortistatin-29 (indirectly measuring LAP-CST) recovered from the culture, 12 hours after MMP1 treatment: diminished from 80 ng to 20 ng, 12 hours later
  amount of Cortistatin-29 (indirectly measuring LAP-CST) recovered from the culture, before MMP1 treatment: diminished from 80 ng to 20 ng, 12 hours later

## cortistatin-29: rat sequence of cortistatin, 29 amino acids (GenBank: EDL81150.1) (QERPPLQQPPHRDKKPCKNFFWKTFSSCK-OH; disulfide 17-28 (inferred); ends not checked; UniProt Q62949 84-112, looked up) [reference compound]
[2]; after 15 minutes at room temperature
  decrease of the amount of cortistatin-29: 82%

## C[C@@H](O)[C@@H]1NC(=O)[C@H](CCCCN)NC(=O)[C@@H](Cc2c[nH]c3ccccc23)NC(=O)[C@H](Cc2ccccc2)NC(=O)[C@@H](NC(=O)[C@H](N)Cc2ccccc2)CSSC[C@@H](C(=O)N[C@H](CO)[C@@H](C)O)NC1=O [octreotide]
sstrt2 receptor
  binding to the sstrt2 receptor: keeps binding
sstr1
  affinity to the sstr1 receptor: completely loses its affinity
sstr4
  affinity to the sstr4 receptor: completely loses its affinity

## cortistatin
[3]
  blood half-life: a few minutes
[4]
  affinity to somatostatin receptors: nanomolar affinity

B1: LAP-CST: fusion protein of LAP of TGFβ-1 (Met1-Ser273), MMP cleavage site PLGLWA flanked by GGGGS linkers, and rat cortistatin-29 (protein)
chain: MPPSGLRLLPLLLPLLWLLVLTPGRPAAGLSTCKTIDMELVKRKRIEAIRGQILSKLRLASPPSQGEVPPGPLPEAVLALYNSTRDRVAGESAEPEPEPEADYYAKEVTRVLMVETHNEIYDKFKQSTHSIYMFFNTSELREAVPEPVLLSRAELRLLRLKLKVEQHVELYQKYSNNSWRYLSNRLLAPSDSPEWLSFDVTGVVRQWLSRGGEIEGFRLSAHCSCDSRDNTLQVDINGFTTGRRGDLATIHGMNRPFLLLMATPLERAQHLQSEFGGGGSPLGLWAGGGGSAAAQERPPLQQPPHRDKKPCKNFFWKTFSSCK
modifications: Fusion peptide
Recombinant MMP1
  amount of Cortistatin-29 (indirectly measuring LAP-CST) recovered from the culture: 20 ng
[2]; cortistatin-29 in LAP-CST
  time the amount of cortistatin-29 remains stable: at least 7 days
[5]; local, once a week, 20 pg, four weeks, compared with LAP alone, as effective as cortistatin 10 ng 3 times per week
  dermal fibrosis (skin thickness, Mason Trichromic staining): effective in reducing dermal fibrosis
[5]; weekly 20 pg versus cortistatin 3 times per week at 500-fold higher concentration
  effectiveness of a single injection relative to recombinant cortistatin: at least 1,500 times
[6]; 18 days, as effective as cortistatin 3 times per week at 500-fold higher dose
  lung fibrosis and damage: significantly reduced lung fibrosis and damage
[6]; bleomycin alone causes 80% of mortality
  survival: dramatically increased survival
[7]; mortality of 50% in untreated mice
  survival: 100%
[7]; similar to cortistatin 500 ng/mouse three times a week
  liver fibrotic area: significantly reduced liver fibrotic area
[8]
  protection versus bleomycin-induced lung fibrosis and mortality: protected
